Test results from patent US11352401.

What was measured:
HLA-B*08 = target: T1, HLA-B*08 (human); assay: UV peptide-exchange ELISA; +++ = yield >50%
T1 construct: MHC monomer made peptide-receptive by UV cleavage of a UV-sensitive ligand; also called peptide-receptive MHC class I monomer

HLA-A*24 = target: T2, HLA-A*24 (human); assay: UV peptide-exchange ELISA; + = yield >10%
T2 construct: MHC monomer made peptide-receptive by UV cleavage of a UV-sensitive ligand; also called peptide-receptive MHC class I monomer
Source text: Candidate peptides for T cell based therapies according to the present invention were further tested for their MHC binding capacity (affinity). The individual peptide-MHC complexes were produced by UV-ligand exchange, where a UV-sensitive peptide is cleaved upon UV-irradiation, and exchanged with the peptide of interest as analyzed. Only peptide candidates that can effectively bind and stabilize the peptide-receptive MHC molecules prevent dissociation of the MHC complexes. To determine the yield of the exchange reaction, an ELISA was performed based on the detection of the light chain (β2m) of stabilized MHC complexes. The assay was performed as generally described in Rodenko et al. (Rodenko et al., 2006).
96 well MAXISorp plates (NUNC) were coated over night with 2 ug/ml streptavidin in PBS at room temperature, washed 4× and blocked for 1 h at 37° C. in 2% BSA containing blocking buffer. […] Peptide-MHC monomers of the UV-exchange reaction were diluted 100-fold in blocking buffer. Samples were incubated for 1 h at 37° C., washed four times, incubated with 2 ug/ml HRP conjugated anti-β2m for 1h at 37° C., washed again and detected with TMB solution that is stopped with […]. Absorption was measured at 450 nm.

HLA-A*02 = target: T3, HLA-A*02 (human); assay: UV peptide-exchange ELISA; +++ = yield >50%
T3 construct: MHC monomer made peptide-receptive by UV cleavage of a UV-sensitive ligand; also called peptide-receptive MHC class I monomer

HLA-A*02:01 [1] = target: HLA-A*02:01 (human); assay: preformed control pMHC complex for aAPC stimulation
Description: (§1) 800.000 beads/200 μl were coated in 96-well plates in the presence of 4×12.5 ng different biotin-pMHC, washed and 600 ng biotin anti-CD28 were added subsequently in a volume of 200 μl. […] Half of the medium was then exchanged by fresh TCM supplemented with 80 U/ml IL-2 and incubating was continued for 4 days at 37° C. This stimulation cycle was performed for a total of three times. For the pMHC multimer readout using 8 different pMHC molecules per condition, a two-dimensional combinatorial coding approach was used as previously described (Andersen et al., 2012) with minor modifications encompassing coupling to 5 different fluorochromes. Finally, multimeric analyses were performed by staining the cells with Live/dead near IR dye (Invitrogen, Karlsruhe, Germany), CD8-FITC antibody clone SK1 (BD, Heidelberg, Germany) and fluorescent pMHC multimers. For analysis, a BD LSRII SORP cytometer equipped with appropriate lasers and filters was used. Peptide specific cells were calculated as percentage of total CD8+ cells. Evaluation of multimeric analysis was done using the FlowJo software (Tree Star, Oregon, USA). In vitro priming of specific multimer+CD8+ lymphocytes was detected by comparing to negative control stimulations.

HLA-A*02:01 [2] = target: HLA-A*02:01 (human); assay: preformed pMHC complex on aAPC beads and as fluorescent multimer, in vitro CD8+ T cell priming
Description: (§2) Viable singlet cells were gated for CD8+ lymphocytes. Boolean gates helped excluding false-positive events detected with multimers specific for different peptides.
as §1

HLA-A*24:02 = HLA-A*24:02 (human); assay: as above
Description: as §2, §1

Binder: HLLQKQTSI [HLLQKQTSI (SEQ ID NO: 302)]
- peptide exchange yield (HLA-B*08): 50 to 75%

Binder: AYTLLGHEFV [AYTLLGHEFV (SEQ ID NO: 77)]
- peptide exchange yield (HLA-A*24): 10 to 20%

Binder: VASPKHCVL [VASPKHCVL (SEQ ID NO: 300)]
- peptide exchange yield (HLA-B*08): 50 to 75%

Binder: NLRDLLSEV [NLRDLLSEV (SEQ ID NO: 92)]
- peptide exchange yield (HLA-A*02): 50 to 75%

B1: DDX5-001 (YLLPAIVHI from DDX5) (peptide)
peptide: YLLPAIVHI
notes: Negative control peptide for T cell stimulations (still a pMHC complex with A*02:01); also called 533
- binding result (HLA-A*02:01 [1]): binds

Binder: DAIQRKYSC [DAIQRKYSC (SEQ ID NO: 309)]
- peptide exchange yield (HLA-B*08): 50 to 75%

Binder: KIQEMQHFL (Synthetic peptide) [SeqID No 520 peptide (KIQEMQHFL)]
- binding result (HLA-A*02:01 [2]): binds

Binder: FALPGLLHA [FALPGLLHA (SEQ ID NO: 91)]
- peptide exchange yield (HLA-A*02): 50 to 75%

Binder: VIKEKALTL [VIKEKALTL (SEQ ID NO: 316)]
- peptide exchange yield (HLA-B*08): 50 to 75%

Binder: FIISDWRFVL [FIISDWRFVL (SEQ ID NO: 101)]
- peptide exchange yield (HLA-A*02): 50 to 75%

Binder: VYEKNGYIYF (Synthetic peptide) [SeqID No 504 peptide (VYEKNGYIYF)]
- binding result (HLA-A*24:02): binds

Binder: FNKRKPLSL [FNKRKPLSL (SEQ ID NO: 298)]
- peptide exchange yield (HLA-B*08): 50 to 75%
